According to article PMC4336473, “Role of L-alanine for redox self-sufficient amination of alcohols” (Microbial Cell Factories, 2015):

Columns and labels:
[1] = substrate: C[C@H](N)C(=O)O; test: HPLC of hexylamine formation, crude extract; assay type: biochemical, Vibrio fluvialis; details: 10 mM hexanal as acceptor, potassium phosphate pH 7.4 (50 mM in results, 100 mM in methods), 37°C
Excerpt: HPLC of hexylamine formation, crude extract on TaVf (transaminase from Vibrio fluvialis)

[2] = substrate: C[C@H](N)C(=O)O; test: HPLC of hexylamine formation, crude extract; assay type: biochemical, Chromobacterium violaceum; details: 10 mM hexanal as acceptor, potassium phosphate pH 7.4 (50 mM in results, 100 mM in methods), 37°C
Excerpt: HPLC of hexylamine formation, crude extract on TaCv (transaminase from Chromobacterium violaceum)

Row | Protein | Km [1] [mM] | Vmax [1] [µmol/min/mg] | Km [2] [mM] | Vmax [2] [µmol/min/mg]
1 | TaVf (transaminase from Vibrio fluvialis) (Vibrio fluvialis) (protein, full length, untagged by primers (pTrc99A-taVf), E. coli W3110 crude extract) MNKPQSWEARAETYSLYGFTDMPSLHQRGTVVVTHGEGPYIVDVNGRRYLDANSGLWNMVAGFDHKGLIDAAKAQYERFPGYHAFFGRMSDQTVMLSEKLVEVSPFDSGRVFYTNSGSEANDTMVKMLWFLHAAEGKPQKRKILTRWNAYHGVTAVSASMTGKPYNSVFGLPLPGFVHLTCPHYWRYGEEGETEEQFVARLARELEETIQREGADTIAGFFAEPVMGAGGVIPPAKGYFQAILPILRKYDIPVISDEVICGFGRTGNTWGCVTYDFTPDAIISSKNLTAGFFPMGAVILGPELSKRLETAIEAIEEFPHGFTASGHPVGCAIALKAIDVVMNEGLAENVRRLAPRFEERLKHIAERPNIGEYRGIGFMWALEAVKDKASKTPFDGNLSVSERIANTCTDLGLICRPLGQSVVLCPPFILTEAQMDEMFDKLEKALDKVFAEVA | 20.00 ± 1.10 | 0.3 | – | –
2 | TaCv (transaminase from Chromobacterium violaceum) (Chromobacterium violaceum ATCC 12472) (protein, full length, codon-optimized, untagged by primers (pTrc99A-taCv), E. coli W3110 crude extract) MQKQRTTSQWRELDAAHHLHPFTDTASLNQAGARVMTRGEGVYLWDSEGNKIIDGMAGLWCVNVGYGRKDFAEAARRQMEELPFYNTFFKTTHPAVVELSSLLAEVTPAGFDRVFYTNSGSESVDTMIRMVRRYWDVQGKPEKKTLIGRWNGYHGSTIGGASLGGMKYMHEQGDLPIPGMAHIEQPWWYKHGKDMTPDEFGVVAARWLEEKILEIGADKVAAFVGEPIQGAGGVIVPPATYWPEIERICRKYDVLLVADEVICGFGRTGEWFGHQHFGFQPDLFTAAKGLSSGYLPIGAVFVGKRVAEGLIAGGDFNHGFTYSGHPVCAAVAHANVAALRDEGIVQRVKDDIGPYMQKRWRETFSRFEHVDDVRGVGMVQAFTLVKNKAKRELFPDFGEIGTLCRDIFFRNNLIMRACGDHIVSAPPLVMTRAEVDEMLAVAERCLEEFEQTLKARGLA | – | – | 35.00 ± 2.20 | 2
